Assay results reported in the supplement of paper PMC9170038.

System: MS2 coat protein
Assay: apparent KD of MS2 coat protein; designed switch direction (-1 OFF switch, 1 ON switch): -1; higher = weaker reporter binding
How it was run: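 Designed RNA switches with common flanks were transcribed on Illumina chips by stalled E. coli RNA polymerase and titrated with SNAP-549-labelled MS2 coat protein, from 0.7 or 1.5 nM doubling to 3 µM, in Tris-HCl pH 7.5 buffer with KCl, MgCl2, BSA, DTT, tRNA and Tween-20. Steps lasted 0.8–1.5 h (lowest) to 10–20 min (highest). Titrations ran without input, with 200 uM small-molecule ligand, or with an oligonucleotide input. Normalised cluster fluorescence was curve-fitted, and apparent KD is the per-design median over clusters.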

[1] = Eterna round: R95, input ligand: FMN 200 uM
[2] = Eterna round: R95, input ligand: microRNA oligo, concentration not stated
[3] = Eterna round: R95, input ligand: none
[4] = input ligand: microRNA oligo, concentration not stated

With “ACAAGCGAAAGGCUCGUCUUAUUUUUGUAGAGGUCCUAAACAUGAGGAUCACCCAUGUAGUGGCGAUGGUGGAGGUA [JR_SV3TOV2_Sub068] (puzzle: Sensor v3, turn-off variant 2)” the “apparent KD of MS2 coat protein” value [1] was 91.2 nM, the “apparent KD of MS2 coat protein” value [2] was 134 nM and the “apparent KD of MS2 coat protein” value [3] was 103 nM.

In the case of “ACAAGCUCUGUGGGUGGUGACAUGAGGAUCACCCAUGUUUUGCUCGUCUUGUGGGCCCGGGCCCGCGGCCCGGGCCC [-41.4, -70.3, A 12%] (Eterna round: R97, puzzle: Sensor, turn-off variant 1)”, the “apparent KD of MS2 coat protein” value (input ligand: FMN 200 uM) is reported as 516 nM and the “apparent KD of MS2 coat protein” value (input ligand: none) is reported as 978 nM.

For “ACAAGCUUAAUCAGUAUGAACAUGAGGAUCACCCAUGUAAAAGGGAAUACUAUUGGGUUUUUUAUAGCUCGUCUUAU [JR_STOV1_Sub018] (Eterna round: R97, puzzle: Sensor, turn-off variant 1)”, the “apparent KD of MS2 coat protein” value (input ligand: FMN 200 uM) was 17.8 nM and the “apparent KD of MS2 coat protein” value (input ligand: none) was 21.7 nM.

In the case of “ACAAGCUUAGGUAAUCAUAACAUGAGGAUCACCCAUGUUCGUCUUAUAAAAAUAAAAAUAAAAAACAAAAAAUAAAA [Sensor V2: 65] (Eterna round: R96, puzzle: Sensor v2, turn-off variant)”, the “apparent KD of MS2 coat protein” value (input ligand: FMN 200 uM) is reported as 33.3 nM, the “apparent KD of MS2 coat protein” value [4] is reported as 70.6 nM and the “apparent KD of MS2 coat protein” value (input ligand: none) is reported as 33.8 nM.

With “ACAAGCUUGUAAUGAUAGAACAUGAGGAUCACCCAUGUAAAUGGAAGAACCAAUUGGAUAAGAUAAACUCGUCUUAU [JR_STOV1_Sub003] (Eterna round: R97, puzzle: Sensor, turn-off variant 1)” the “apparent KD of MS2 coat protein” value (input ligand: FMN 200 uM) was 114 nM and the “apparent KD of MS2 coat protein” value (input ligand: none) was 127 nM.

“ACAAGCUUUUAGAUUUUCAACAUGAGGAUCACCCAUGUUCGUCUUAGGCUAGUGCGAGUGCGGUGUACUCGUAUUAG [JL TOV1 3.84 sellena mod] (Eterna round: R97, puzzle: Sensor, turn-off variant 1)” was tested, and the “apparent KD of MS2 coat protein” value (input ligand: FMN 200 uM) was 18.2 nM and the “apparent KD of MS2 coat protein” value (input ligand: none) was 16.4 nM.

With “ACAAGCUUUUUGCAAUUUAGUUUUGUUGCUUCGUAGGUAACAUGAGGAUCACCCAUGUAAGAGUGAUGUCGUCUUAU [JR_SV3TOV2_Sub084] (puzzle: Sensor v3, turn-off variant 2)” the “apparent KD of MS2 coat protein” value [1] was 520 nM, the “apparent KD of MS2 coat protein” value [2] was 141 nM and the “apparent KD of MS2 coat protein” value [3] was 609 nM.

In the case of “ACAAGCUUUUUGCAUCAAGCAUUAAAGUCUGUGAUCGUAACAUGAGGAUCACCCAUGUAAGUUUUAUGACGUCUUAU [JR_SV3TOV2_Sub096] (puzzle: Sensor v3, turn-off variant 2)”, the “apparent KD of MS2 coat protein” value [1] is reported as 24.8 nM, the “apparent KD of MS2 coat protein” value [2] is reported as 39.8 nM and the “apparent KD of MS2 coat protein” value [3] is reported as 25.3 nM.

For “ACAAGCUUUUUGCAUCAAGCAUUAAAGUCUGUGAUCGUAACAUGAGGAUCACCCAUGUAAGUUUUAUGUCGUCUUAU [JR_SV3TOV2_Sub097] (puzzle: Sensor v3, turn-off variant 2)”, the “apparent KD of MS2 coat protein” value [1] was 39.7 nM, the “apparent KD of MS2 coat protein” value [2] was 48.3 nM and the “apparent KD of MS2 coat protein” value [3] was 41.1 nM.

For “ACAAGCUUUUUGCUCGGGUACAUGAGGAUCACCCAUGUUUGGGUUUAUUGAGGUUGUGUUGUCGUGCGCUGCAGGUU [JR_SV3TOV1_Sub076] (puzzle: Sensor v3, turn-off variant 1)”, the “apparent KD of MS2 coat protein” value [1] was 165 nM, the “apparent KD of MS2 coat protein” value [2] was 416 nM and the “apparent KD of MS2 coat protein” value [3] was 232 nM.

With “ACAAGCUUUUUGUUCGUCUUAUAAUAUUCAAUAAGGAUAACAUGAGGAUCACCCAUGUAACAAAGACGGACUCAUGU [Sesor Array 15 - Jieux - Sensor v3, turn-off variant 2] (puzzle: Sensor v3, turn-off variant 2)” the “apparent KD of MS2 coat protein” value [1] was 17.2 nM, the “apparent KD of MS2 coat protein” value [2] was 133 nM and the “apparent KD of MS2 coat protein” value [3] was 13 nM.

“ACACCGCAAGGAUAUACUUGCGGUGGUGUUCGAAGCUUUCUACUUGAGGAUCACCCAAGUAGAAGGUGCGGUGU [jl-ex2.4.73 ViennaUCT mod] (Eterna round: R97, puzzle: Exclusion 2)” was tested, and the “apparent KD of MS2 coat protein” value (input ligand: FMN 200 uM) was 12.8 nM and the “apparent KD of MS2 coat protein” value (input ligand: none) was 12.3 nM.

For “ACACUUGAACAUGAGGAUCACCCAUGUGUUUUUCUGGUUCGGCAGGAUAUCGUCUAACGCCAGGGCGAGAAGGGCCAAUAAAAG [Inlale] (Eterna round: R96, puzzle: Exclusion NG 3)”, the “apparent KD of MS2 coat protein” value (input ligand: FMN 200 uM) was 26 nM, the “apparent KD of MS2 coat protein” value [4] was 29.4 nM and the “apparent KD of MS2 coat protein” value (input ligand: none) was 37 nM.

“ACAGAGCAAGGAUAUGCCGGGCGUGACAUGAGGAUCACCCAUGUGAUGCCGGUACGUUUAGCAGAAGGUGCAGGCA [EX5 C.2] (Eterna round: R97, puzzle: Exclusion 5)” was tested, and the “apparent KD of MS2 coat protein” value (input ligand: FMN 200 uM) was 19 nM and the “apparent KD of MS2 coat protein” value (input ligand: none) was 14.8 nM.

With “ACAGUACUGCAAGGAUAUCGUUCUAGUUUAUUACGAGAAGGUGCUUUAGUUAUUUCUUUGUGUUGACAUGAGGAUCACCCAUGU [JR_ExcNG1_Sub055] (Eterna round: R96, puzzle: Exclusion NG 1)” the “apparent KD of MS2 coat protein” value (input ligand: FMN 200 uM) was 18.9 nM, the “apparent KD of MS2 coat protein” value [4] was 17.9 nM and the “apparent KD of MS2 coat protein” value (input ligand: none) was 26.4 nM.
